Results: patent US20100304465

Target: delta-plasminogen
Sequence (chain, as listed by the source mutant): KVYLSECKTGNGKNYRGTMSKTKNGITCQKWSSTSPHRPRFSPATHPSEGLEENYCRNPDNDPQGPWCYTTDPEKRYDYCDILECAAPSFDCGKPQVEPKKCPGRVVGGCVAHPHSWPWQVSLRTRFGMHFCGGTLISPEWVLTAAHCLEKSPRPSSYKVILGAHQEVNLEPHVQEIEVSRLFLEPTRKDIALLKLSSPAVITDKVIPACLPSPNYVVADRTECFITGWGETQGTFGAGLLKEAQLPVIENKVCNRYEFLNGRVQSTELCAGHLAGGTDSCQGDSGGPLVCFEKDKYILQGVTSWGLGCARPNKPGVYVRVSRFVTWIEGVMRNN

B1: tissue Plasminogen Activator (protein)
chain: SYQVICRDEKTQMIYQQHQSWLRPVLRSNRVEYCWCNSGRAQCHSVPVKSCSEPRCFNGGTCQQALYFSDFVCQCPEGFAGKCCEIDTRATCYEDQGISYRGTWSTAESGAECTNWNSSALAQKPYSGRRPDAIRLGLGNHNYCRNPDRDSKPWCYVFKAGKYSSEFCSTPACSEGNSDCYFGNGSAYRGTHSLTESGASCLPWNSMILIGKVYTAQNPSAQALGLGKHNYCRNPDGDAKPWCHVLKNRRLTWEYCDVPSCSTCGLRQYSQPQFRIKGGLFADIASHPWQAAIFAKHRRSPGERFLCGGILISSCWILSAAHCFQERFPPHHLTVILGRTYRVVPGEEEQKFEVEKYIVHKEFDDDTYDNDIALLQLKSDSSRCAQESSVVRTVCLPPADLQLPDWTECELSGYGKHEALSPFYSERLKEAHVRLYPSSRCTSQHLLNRTVTDNMLCAGDTRSGGPQANLHDACQGDSGGPLVCLNDGRMTLVGIISWGLGCGQKDVPGVYTKVTNYLDWIRDNMRP
conversion of one-chain delta-plasminogen into two-chain delta-plasmin (reduced SDS-PAGE): delta-plasminogen indeed can be activated by all three plasminogen activators
